# Results published in publication PMC8455617 (2021).
# Where “and” joins values, the source holds several entries; their conditions need not be identical. Identical values can stand only once.
# T1: citrate synthase, mitochondrial (Sus scrofa, UniProt P00889)
# T1 chain: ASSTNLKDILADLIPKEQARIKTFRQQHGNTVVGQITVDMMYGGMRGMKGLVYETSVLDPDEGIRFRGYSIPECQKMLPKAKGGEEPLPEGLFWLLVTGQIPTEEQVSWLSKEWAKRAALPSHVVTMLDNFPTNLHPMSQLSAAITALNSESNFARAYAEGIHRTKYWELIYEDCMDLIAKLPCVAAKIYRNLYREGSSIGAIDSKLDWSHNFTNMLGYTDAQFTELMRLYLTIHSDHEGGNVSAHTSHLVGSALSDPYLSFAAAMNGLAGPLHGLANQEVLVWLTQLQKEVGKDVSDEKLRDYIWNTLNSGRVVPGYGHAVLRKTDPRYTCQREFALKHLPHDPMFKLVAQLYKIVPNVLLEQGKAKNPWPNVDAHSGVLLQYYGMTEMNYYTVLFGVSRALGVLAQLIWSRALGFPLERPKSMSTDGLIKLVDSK
# Molecular target: T1, citrate synthase, mitochondrial
# Test: MST
row,Kd,Binder
1,720 nM,"malate dehydrogenase, mitochondrial (protein, 20 mM ATP) AKVAVLGASGGIGQPLSLLLKNSPLVSRLTLYDIAHTPGVAADLSHIETRATVKGYLGPEQLPDCLKGCDVVVIPAGVPRKPGMTRDDLFNTNATIVATLTAACAQHCPDAMICIISNPVNSTIPITAEVFKKHGVYNPNKIFGVTTLDIVRANAFVAELKGLDPARVSVPVIGGHAGKTIIPLISQCTPKVDFPQDQLSTLTGRIQEAGTEVVKAKAGAGSATLSMAYAGARFVFSLVDAMNGKEGVVECSFVKSQETDCPYFSTPLLLGKKGIEKNLGIGKISPFEEKMIAEAIPELKASIKKGEEFVKNMK"
2,520 nM,"malate dehydrogenase, mitochondrial (protein, 10 mM oxaloacetate and acetyl-CoA) AKVAVLGASGGIGQPLSLLLKNSPLVSRLTLYDIAHTPGVAADLSHIETRATVKGYLGPEQLPDCLKGCDVVVIPAGVPRKPGMTRDDLFNTNATIVATLTAACAQHCPDAMICIISNPVNSTIPITAEVFKKHGVYNPNKIFGVTTLDIVRANAFVAELKGLDPARVSVPVIGGHAGKTIIPLISQCTPKVDFPQDQLSTLTGRIQEAGTEVVKAKAGAGSATLSMAYAGARFVFSLVDAMNGKEGVVECSFVKSQETDCPYFSTPLLLGKKGIEKNLGIGKISPFEEKMIAEAIPELKASIKKGEEFVKNMK"
3,2010 nM,"malate dehydrogenase, mitochondrial (protein, 10 mM oxaloacetate and NADH) AKVAVLGASGGIGQPLSLLLKNSPLVSRLTLYDIAHTPGVAADLSHIETRATVKGYLGPEQLPDCLKGCDVVVIPAGVPRKPGMTRDDLFNTNATIVATLTAACAQHCPDAMICIISNPVNSTIPITAEVFKKHGVYNPNKIFGVTTLDIVRANAFVAELKGLDPARVSVPVIGGHAGKTIIPLISQCTPKVDFPQDQLSTLTGRIQEAGTEVVKAKAGAGSATLSMAYAGARFVFSLVDAMNGKEGVVECSFVKSQETDCPYFSTPLLLGKKGIEKNLGIGKISPFEEKMIAEAIPELKASIKKGEEFVKNMK"
4,760 nM and 460 nM,"malate dehydrogenase, mitochondrial (protein, 10 mM ATP) AKVAVLGASGGIGQPLSLLLKNSPLVSRLTLYDIAHTPGVAADLSHIETRATVKGYLGPEQLPDCLKGCDVVVIPAGVPRKPGMTRDDLFNTNATIVATLTAACAQHCPDAMICIISNPVNSTIPITAEVFKKHGVYNPNKIFGVTTLDIVRANAFVAELKGLDPARVSVPVIGGHAGKTIIPLISQCTPKVDFPQDQLSTLTGRIQEAGTEVVKAKAGAGSATLSMAYAGARFVFSLVDAMNGKEGVVECSFVKSQETDCPYFSTPLLLGKKGIEKNLGIGKISPFEEKMIAEAIPELKASIKKGEEFVKNMK"
5,25100 nM,"malate dehydrogenase, mitochondrial (protein, 10 mM citrate) AKVAVLGASGGIGQPLSLLLKNSPLVSRLTLYDIAHTPGVAADLSHIETRATVKGYLGPEQLPDCLKGCDVVVIPAGVPRKPGMTRDDLFNTNATIVATLTAACAQHCPDAMICIISNPVNSTIPITAEVFKKHGVYNPNKIFGVTTLDIVRANAFVAELKGLDPARVSVPVIGGHAGKTIIPLISQCTPKVDFPQDQLSTLTGRIQEAGTEVVKAKAGAGSATLSMAYAGARFVFSLVDAMNGKEGVVECSFVKSQETDCPYFSTPLLLGKKGIEKNLGIGKISPFEEKMIAEAIPELKASIKKGEEFVKNMK"
6,2240 nM,"malate dehydrogenase, mitochondrial (protein, 10 mM ADP) AKVAVLGASGGIGQPLSLLLKNSPLVSRLTLYDIAHTPGVAADLSHIETRATVKGYLGPEQLPDCLKGCDVVVIPAGVPRKPGMTRDDLFNTNATIVATLTAACAQHCPDAMICIISNPVNSTIPITAEVFKKHGVYNPNKIFGVTTLDIVRANAFVAELKGLDPARVSVPVIGGHAGKTIIPLISQCTPKVDFPQDQLSTLTGRIQEAGTEVVKAKAGAGSATLSMAYAGARFVFSLVDAMNGKEGVVECSFVKSQETDCPYFSTPLLLGKKGIEKNLGIGKISPFEEKMIAEAIPELKASIKKGEEFVKNMK"
7,770 nM,"malate dehydrogenase, mitochondrial (protein, 5 mM ATP) AKVAVLGASGGIGQPLSLLLKNSPLVSRLTLYDIAHTPGVAADLSHIETRATVKGYLGPEQLPDCLKGCDVVVIPAGVPRKPGMTRDDLFNTNATIVATLTAACAQHCPDAMICIISNPVNSTIPITAEVFKKHGVYNPNKIFGVTTLDIVRANAFVAELKGLDPARVSVPVIGGHAGKTIIPLISQCTPKVDFPQDQLSTLTGRIQEAGTEVVKAKAGAGSATLSMAYAGARFVFSLVDAMNGKEGVVECSFVKSQETDCPYFSTPLLLGKKGIEKNLGIGKISPFEEKMIAEAIPELKASIKKGEEFVKNMK"
8,3100 nM,"malate dehydrogenase, mitochondrial (protein, 10 mM AMP) AKVAVLGASGGIGQPLSLLLKNSPLVSRLTLYDIAHTPGVAADLSHIETRATVKGYLGPEQLPDCLKGCDVVVIPAGVPRKPGMTRDDLFNTNATIVATLTAACAQHCPDAMICIISNPVNSTIPITAEVFKKHGVYNPNKIFGVTTLDIVRANAFVAELKGLDPARVSVPVIGGHAGKTIIPLISQCTPKVDFPQDQLSTLTGRIQEAGTEVVKAKAGAGSATLSMAYAGARFVFSLVDAMNGKEGVVECSFVKSQETDCPYFSTPLLLGKKGIEKNLGIGKISPFEEKMIAEAIPELKASIKKGEEFVKNMK"

# Further lines, the binder ahead of its results:
row,Binder,Kd
1,"malate dehydrogenase, mitochondrial (protein, 10 mM succinyl-CoA) AKVAVLGASGGIGQPLSLLLKNSPLVSRLTLYDIAHTPGVAADLSHIETRATVKGYLGPEQLPDCLKGCDVVVIPAGVPRKPGMTRDDLFNTNATIVATLTAACAQHCPDAMICIISNPVNSTIPITAEVFKKHGVYNPNKIFGVTTLDIVRANAFVAELKGLDPARVSVPVIGGHAGKTIIPLISQCTPKVDFPQDQLSTLTGRIQEAGTEVVKAKAGAGSATLSMAYAGARFVFSLVDAMNGKEGVVECSFVKSQETDCPYFSTPLLLGKKGIEKNLGIGKISPFEEKMIAEAIPELKASIKKGEEFVKNMK",1970 nM
2,"malate dehydrogenase, mitochondrial (protein, 10 mM alpha-ketoglutarate) AKVAVLGASGGIGQPLSLLLKNSPLVSRLTLYDIAHTPGVAADLSHIETRATVKGYLGPEQLPDCLKGCDVVVIPAGVPRKPGMTRDDLFNTNATIVATLTAACAQHCPDAMICIISNPVNSTIPITAEVFKKHGVYNPNKIFGVTTLDIVRANAFVAELKGLDPARVSVPVIGGHAGKTIIPLISQCTPKVDFPQDQLSTLTGRIQEAGTEVVKAKAGAGSATLSMAYAGARFVFSLVDAMNGKEGVVECSFVKSQETDCPYFSTPLLLGKKGIEKNLGIGKISPFEEKMIAEAIPELKASIKKGEEFVKNMK",1140 nM
3,"malate dehydrogenase, mitochondrial (protein, 10 mM malate) AKVAVLGASGGIGQPLSLLLKNSPLVSRLTLYDIAHTPGVAADLSHIETRATVKGYLGPEQLPDCLKGCDVVVIPAGVPRKPGMTRDDLFNTNATIVATLTAACAQHCPDAMICIISNPVNSTIPITAEVFKKHGVYNPNKIFGVTTLDIVRANAFVAELKGLDPARVSVPVIGGHAGKTIIPLISQCTPKVDFPQDQLSTLTGRIQEAGTEVVKAKAGAGSATLSMAYAGARFVFSLVDAMNGKEGVVECSFVKSQETDCPYFSTPLLLGKKGIEKNLGIGKISPFEEKMIAEAIPELKASIKKGEEFVKNMK",1850 nM and 1800 nM
4,"malate dehydrogenase, mitochondrial (protein, 1.25 mM ATP) AKVAVLGASGGIGQPLSLLLKNSPLVSRLTLYDIAHTPGVAADLSHIETRATVKGYLGPEQLPDCLKGCDVVVIPAGVPRKPGMTRDDLFNTNATIVATLTAACAQHCPDAMICIISNPVNSTIPITAEVFKKHGVYNPNKIFGVTTLDIVRANAFVAELKGLDPARVSVPVIGGHAGKTIIPLISQCTPKVDFPQDQLSTLTGRIQEAGTEVVKAKAGAGSATLSMAYAGARFVFSLVDAMNGKEGVVECSFVKSQETDCPYFSTPLLLGKKGIEKNLGIGKISPFEEKMIAEAIPELKASIKKGEEFVKNMK",1060 nM
5,"malate dehydrogenase, mitochondrial (protein, 10 mM oxaloacetate) AKVAVLGASGGIGQPLSLLLKNSPLVSRLTLYDIAHTPGVAADLSHIETRATVKGYLGPEQLPDCLKGCDVVVIPAGVPRKPGMTRDDLFNTNATIVATLTAACAQHCPDAMICIISNPVNSTIPITAEVFKKHGVYNPNKIFGVTTLDIVRANAFVAELKGLDPARVSVPVIGGHAGKTIIPLISQCTPKVDFPQDQLSTLTGRIQEAGTEVVKAKAGAGSATLSMAYAGARFVFSLVDAMNGKEGVVECSFVKSQETDCPYFSTPLLLGKKGIEKNLGIGKISPFEEKMIAEAIPELKASIKKGEEFVKNMK",2230 nM
6,"malate dehydrogenase, mitochondrial (protein, 10 mM succinate) AKVAVLGASGGIGQPLSLLLKNSPLVSRLTLYDIAHTPGVAADLSHIETRATVKGYLGPEQLPDCLKGCDVVVIPAGVPRKPGMTRDDLFNTNATIVATLTAACAQHCPDAMICIISNPVNSTIPITAEVFKKHGVYNPNKIFGVTTLDIVRANAFVAELKGLDPARVSVPVIGGHAGKTIIPLISQCTPKVDFPQDQLSTLTGRIQEAGTEVVKAKAGAGSATLSMAYAGARFVFSLVDAMNGKEGVVECSFVKSQETDCPYFSTPLLLGKKGIEKNLGIGKISPFEEKMIAEAIPELKASIKKGEEFVKNMK",180 nM
7,"malate dehydrogenase, mitochondrial (protein, 10 mM CoA) AKVAVLGASGGIGQPLSLLLKNSPLVSRLTLYDIAHTPGVAADLSHIETRATVKGYLGPEQLPDCLKGCDVVVIPAGVPRKPGMTRDDLFNTNATIVATLTAACAQHCPDAMICIISNPVNSTIPITAEVFKKHGVYNPNKIFGVTTLDIVRANAFVAELKGLDPARVSVPVIGGHAGKTIIPLISQCTPKVDFPQDQLSTLTGRIQEAGTEVVKAKAGAGSATLSMAYAGARFVFSLVDAMNGKEGVVECSFVKSQETDCPYFSTPLLLGKKGIEKNLGIGKISPFEEKMIAEAIPELKASIKKGEEFVKNMK",2320 nM
8,"malate dehydrogenase, mitochondrial (protein, 10 mM NADH) AKVAVLGASGGIGQPLSLLLKNSPLVSRLTLYDIAHTPGVAADLSHIETRATVKGYLGPEQLPDCLKGCDVVVIPAGVPRKPGMTRDDLFNTNATIVATLTAACAQHCPDAMICIISNPVNSTIPITAEVFKKHGVYNPNKIFGVTTLDIVRANAFVAELKGLDPARVSVPVIGGHAGKTIIPLISQCTPKVDFPQDQLSTLTGRIQEAGTEVVKAKAGAGSATLSMAYAGARFVFSLVDAMNGKEGVVECSFVKSQETDCPYFSTPLLLGKKGIEKNLGIGKISPFEEKMIAEAIPELKASIKKGEEFVKNMK",7500 nM
